Measured values taken from PMC8113721, “The lysosomal protein ABCD4 can transport vitamin B12 across liposomal membranes in vitro” (The Journal of Biological Chemistry, 2021).
Values belong to the binder of their own block, whether it stands above or below them.

B1: His-tagged human ABCD4 (natural protein)
chain: AVAGPAPGAGARPRLDLQFLQRFLQILKVLFPSWSSQNALMFLTLLCLTLLEQFVIYQVGLIPSQYYGVLGNKDLEGFKTLTFLAVMLIVLNSTLKSFDQFTCNLLYVSWRKDLTEHLHRLYFRGRAYYTLNVLRDDIDNPDQRISQDVERFCRQLSSMASKLIISPFTLVYYTYQCFQSTGWLGPVSIFGYFILGTVVNKTLMGPIVMKLVHQEKLEGDFRFKHMQIRVNAEPAAFYRAGHVEHMRTDRRLQRLLQTQRELMSKELWLYIGINTFDYLGSILSYVVIAIPIFSGVYGDLSPAELSTLVSKNAFVCIYLISCFTQLIDLSTTLSDVAGYTHRIGQLRETLLDMSLKSQDCEILGESEWGLDTPPGWPAAEPADTAFLLERVSISAPSSDKPLIKDLSLKISEGQSLLITGNTGTGKTSLLRVLGGLWTSTRGSVQMLTDFGPHGVLFLPQKPFFTDGTLREQVIYPLKEVYPDSGSADDERILRFLELAGLSNLVARTEGLDQQVDWNWYDVLSPGEMQRLSFARLFYLQPKYAVLDEATSALTEEVESELYRIGQQLGMTFISVGHRQSLEKFHSLVLKLCGGGRWELMRIKVE
notes: ABCD4 (ABC transporter subfamily D member 4), human; also called His-ABCD4; wildtype ABCD4; source: also reconstituted in liposomes

Columns and labels:
[1] = biological target: the molecule itself; test: SEC; purified His-ABCD4 solubilized in β-DDM; size exclusion chromatography, polydisperse profile with a ∼360 kDa major peak
[2] = biological target: the molecule itself; test: not stated; mutant His-ABCD4 reconstituted in liposomes (Fig. S11B); the text does not name the method
His-tagged human ABCD4 = biological target: B1; test: cross-linking; purified His-ABCD4 and LMBD1–GST mixed; SDA and m-maleimidobenzoyl-N-hydroxysuccinimide ester (2 mM each), UV irradiation; immunoblot; settings: both partners purified
[3] = biological target: the molecule itself; test: as above

Binder: B1
stoichiometry N [1]: 2

B2: His-ABCD4 (N141K) (natural protein, human)
chain: AVAGPAPGAGARPRLDLQFLQRFLQILKVLFPSWSSQNALMFLTLLCLTLLEQFVIYQVGLIPSQYYGVLGNKDLEGFKTLTFLAVMLIVLNSTLKSFDQFTCNLLYVSWRKDLTEHLHRLYFRGRAYYTLNVLRDDIDKPDQRISQDVERFCRQLSSMASKLIISPFTLVYYTYQCFQSTGWLGPVSIFGYFILGTVVNKTLMGPIVMKLVHQEKLEGDFRFKHMQIRVNAEPAAFYRAGHVEHMRTDRRLQRLLQTQRELMSKELWLYIGINTFDYLGSILSYVVIAIPIFSGVYGDLSPAELSTLVSKNAFVCIYLISCFTQLIDLSTTLSDVAGYTHRIGQLRETLLDMSLKSQDCEILGESEWGLDTPPGWPAAEPADTAFLLERVSISAPSSDKPLIKDLSLKISEGQSLLITGNTGTGKTSLLRVLGGLWTSTRGSVQMLTDFGPHGVLFLPQKPFFTDGTLREQVIYPLKEVYPDSGSADDERILRFLELAGLSNLVARTEGLDQQVDWNWYDVLSPGEMQRLSFARLFYLQPKYAVLDEATSALTEEVESELYRIGQQLGMTFISVGHRQSLEKFHSLVLKLCGGGRWELMRIKVE
notes: ABCD4, human, with the clinical missense mutation N141K; N141K is a clinical mutation reported in cobalamin deficiency; source: K. phaffii, purified and reconstituted in liposomes using the same procedure as used for His-ABCD4
stoichiometry N [2]: 2

B3: His-ABCD4 (Y319C) (natural protein, human)
chain: AVAGPAPGAGARPRLDLQFLQRFLQILKVLFPSWSSQNALMFLTLLCLTLLEQFVIYQVGLIPSQYYGVLGNKDLEGFKTLTFLAVMLIVLNSTLKSFDQFTCNLLYVSWRKDLTEHLHRLYFRGRAYYTLNVLRDDIDNPDQRISQDVERFCRQLSSMASKLIISPFTLVYYTYQCFQSTGWLGPVSIFGYFILGTVVNKTLMGPIVMKLVHQEKLEGDFRFKHMQIRVNAEPAAFYRAGHVEHMRTDRRLQRLLQTQRELMSKELWLYIGINTFDYLGSILSYVVIAIPIFSGVYGDLSPAELSTLVSKNAFVCICLISCFTQLIDLSTTLSDVAGYTHRIGQLRETLLDMSLKSQDCEILGESEWGLDTPPGWPAAEPADTAFLLERVSISAPSSDKPLIKDLSLKISEGQSLLITGNTGTGKTSLLRVLGGLWTSTRGSVQMLTDFGPHGVLFLPQKPFFTDGTLREQVIYPLKEVYPDSGSADDERILRFLELAGLSNLVARTEGLDQQVDWNWYDVLSPGEMQRLSFARLFYLQPKYAVLDEATSALTEEVESELYRIGQQLGMTFISVGHRQSLEKFHSLVLKLCGGGRWELMRIKVE
notes: ABCD4, human, with the clinical missense mutation Y319C; Y319C is a clinical mutation reported in cobalamin deficiency; source: K. phaffii, purified and reconstituted in liposomes using the same procedure as used for His-ABCD4
stoichiometry N [2]: 2

stoichiometry N (His-tagged human ABCD4): 1
B4: glutathione-S-transferase (GST)–tagged LMBD1 (natural protein, human, UniProt Q9NUN5 1-540, looked up)
chain: MATSGAASAELVIGWCIFGLLLLAILAFCWIYVRKYQSRRESEVVSTITAIFSLAIALITSALLPVDIFLVSYMKNQNGTFKDWANANVSRQIEDTVLYGYYTLYSVILFCVFFWIPFVYFYYEEKDDDDTSKCTQIKTALKYTLGFVVICALLLLVGAFVPLNVPNNKNSTEWEKVKSLFEELGSSHGLAALSFSISSLTLIGMLAAITYTAYGMSALPLNLIKGTRSAAYERLENTEDIEEVEQHIQTIKSKSKDGRPLPARDKRALKQFEERLRTLKKRERHLEFIENSWWTKFCGALRPLKIVWGIFFILVALLFVISLFLSNLDKALHSAGIDSGFIIFGANLSNPLNMLLPLLQTVFPLDYILITIIIMYFIFTSMAGIRNIGIWFFWIRLYKIRRGRTRPQALLFLCMILLLIVLHTSYMIYSLAPQYVMYGSQNYLIETNITSDNHKGNSTLSVPKRCDADAPEDQCTVTRTYLFLHKFWFFSAAYYFGNWAFLGVFLIGLIVSCCKGKKSVIEGVDEDSDISDDEPSVYSA
notes: LMBD1 (lysosomal membrane protein encoded by LMBRD1), human; GST itself can dimerise; the dimer seen by cross-linking is of the GST fusion; also called LMBD1–GST; source: also reconstituted in liposomes with His-ABCD4
stoichiometry N [3]: 2
